The target of data set [1] is T1, Y51H4A.4 (Y51H4A.4) (Caenorhabditis elegans) (UniProt Q9NAE4).
T1 sequence: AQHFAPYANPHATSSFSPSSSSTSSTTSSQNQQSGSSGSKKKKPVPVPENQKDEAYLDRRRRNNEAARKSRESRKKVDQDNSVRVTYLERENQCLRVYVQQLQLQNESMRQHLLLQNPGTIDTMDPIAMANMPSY

Data set [2] deals with scrt-1 (C55C2.1) (Caenorhabditis elegans).
For data set [3], the target named is T2, atf-2 (K08F8.2) (Caenorhabditis elegans) (UniProt Q21361).
T2 sequence: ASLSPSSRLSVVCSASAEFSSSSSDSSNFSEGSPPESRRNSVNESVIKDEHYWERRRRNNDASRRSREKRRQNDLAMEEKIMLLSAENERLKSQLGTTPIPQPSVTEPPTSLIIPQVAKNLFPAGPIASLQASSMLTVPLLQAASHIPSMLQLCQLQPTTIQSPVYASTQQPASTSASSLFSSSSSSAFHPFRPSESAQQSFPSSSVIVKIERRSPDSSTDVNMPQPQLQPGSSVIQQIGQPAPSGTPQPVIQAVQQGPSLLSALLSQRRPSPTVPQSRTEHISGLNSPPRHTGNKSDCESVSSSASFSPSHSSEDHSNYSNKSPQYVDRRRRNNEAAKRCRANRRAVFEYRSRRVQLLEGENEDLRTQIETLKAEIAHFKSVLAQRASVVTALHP

Data set [4] addresses T3, K02D7.2 (K02D7.2) (Caenorhabditis elegans) (UniProt O45103).
T3 sequence: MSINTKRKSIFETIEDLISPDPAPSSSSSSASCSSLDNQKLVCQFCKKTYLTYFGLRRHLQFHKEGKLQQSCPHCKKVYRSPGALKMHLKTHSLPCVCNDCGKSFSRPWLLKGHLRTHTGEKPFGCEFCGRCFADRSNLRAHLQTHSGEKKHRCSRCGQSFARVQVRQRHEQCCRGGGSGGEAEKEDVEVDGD

The target of data set [5] is T4, nhr-168 (C50B6.8) (Caenorhabditis elegans) (UniProt P91983).
T4 sequence: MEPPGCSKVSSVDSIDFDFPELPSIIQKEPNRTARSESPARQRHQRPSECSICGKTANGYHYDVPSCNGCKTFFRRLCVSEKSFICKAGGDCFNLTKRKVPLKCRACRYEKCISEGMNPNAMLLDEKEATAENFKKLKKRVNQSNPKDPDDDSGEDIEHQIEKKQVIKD

The target of data set [6] is T5, dmd-6 (F13G11.1) (Caenorhabditis elegans) (UniProt O62159).
T5 sequence: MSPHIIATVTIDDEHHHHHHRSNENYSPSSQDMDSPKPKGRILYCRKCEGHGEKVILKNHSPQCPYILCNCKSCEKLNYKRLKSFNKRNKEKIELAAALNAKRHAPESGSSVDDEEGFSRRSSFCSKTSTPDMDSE

The target in data set [7] is T6, mab-23 (C32C4.5) (Caenorhabditis elegans) (UniProt G5ECK3).
T6 sequence: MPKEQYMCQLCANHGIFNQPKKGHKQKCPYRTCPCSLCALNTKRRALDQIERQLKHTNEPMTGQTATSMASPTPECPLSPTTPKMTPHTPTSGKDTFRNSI

Data set [8] addresses T7, Y61A9LA.9 (Y61A9LA.9) (Caenorhabditis elegans) (UniProt Q9N312).
T7 sequence: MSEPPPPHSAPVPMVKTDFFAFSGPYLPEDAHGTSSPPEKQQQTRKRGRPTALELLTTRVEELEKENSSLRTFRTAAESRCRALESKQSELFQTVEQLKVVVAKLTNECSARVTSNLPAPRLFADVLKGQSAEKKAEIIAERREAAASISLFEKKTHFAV

In data set [9] the target is T8, tbx-33 (Y66A7A.8) (Caenorhabditis elegans) (UniProt O45291).
T8 sequence: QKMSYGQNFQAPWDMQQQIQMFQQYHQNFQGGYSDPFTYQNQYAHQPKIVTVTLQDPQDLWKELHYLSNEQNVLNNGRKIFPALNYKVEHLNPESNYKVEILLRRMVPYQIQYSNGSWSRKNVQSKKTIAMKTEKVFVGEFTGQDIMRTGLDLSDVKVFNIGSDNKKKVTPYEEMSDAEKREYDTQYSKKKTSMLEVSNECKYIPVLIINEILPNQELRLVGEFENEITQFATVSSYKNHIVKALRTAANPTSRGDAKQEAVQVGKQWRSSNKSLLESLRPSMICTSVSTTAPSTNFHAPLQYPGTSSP

In data set [10] the target is T9, odr-7 (T18D3.2) (Caenorhabditis elegans) (UniProt P41933).
T9 sequence: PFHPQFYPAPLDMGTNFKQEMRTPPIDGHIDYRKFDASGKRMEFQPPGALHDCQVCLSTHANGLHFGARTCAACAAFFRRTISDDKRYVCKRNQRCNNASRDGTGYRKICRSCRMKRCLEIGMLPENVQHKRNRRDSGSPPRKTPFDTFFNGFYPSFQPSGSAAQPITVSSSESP

For data set [11], the target named is T10, F55C5.11 (F55C5.11) (Caenorhabditis elegans) (UniProt Q1ZXU0).
T10 sequence: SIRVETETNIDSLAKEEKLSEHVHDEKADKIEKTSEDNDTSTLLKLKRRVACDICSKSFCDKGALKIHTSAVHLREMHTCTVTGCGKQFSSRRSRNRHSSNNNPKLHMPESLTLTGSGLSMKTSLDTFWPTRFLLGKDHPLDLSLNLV

Data set [12] concerns the target T11, T07C12.11 (T07C12.11) (Caenorhabditis elegans) (UniProt G5EGG9).
T11 sequence: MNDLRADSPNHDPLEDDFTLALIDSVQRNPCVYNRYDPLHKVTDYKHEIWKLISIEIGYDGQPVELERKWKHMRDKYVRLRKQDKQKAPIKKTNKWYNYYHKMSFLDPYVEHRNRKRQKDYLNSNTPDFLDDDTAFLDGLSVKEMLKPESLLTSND

Data set [13] has as its target T12, Y75B8A.6 (Y75B8A.6) (Caenorhabditis elegans) (UniProt A0A168H365).
T12 sequence: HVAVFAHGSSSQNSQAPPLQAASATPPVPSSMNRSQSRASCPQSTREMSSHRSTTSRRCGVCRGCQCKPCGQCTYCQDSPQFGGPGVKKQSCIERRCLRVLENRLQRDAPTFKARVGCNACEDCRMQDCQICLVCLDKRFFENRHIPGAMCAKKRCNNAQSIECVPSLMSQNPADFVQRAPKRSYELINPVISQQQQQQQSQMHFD

For data set [14], the target named is T13, Y44A6D.3 (Y44A6D.3) (Caenorhabditis elegans) (UniProt Q9XXE0).
T13 sequence: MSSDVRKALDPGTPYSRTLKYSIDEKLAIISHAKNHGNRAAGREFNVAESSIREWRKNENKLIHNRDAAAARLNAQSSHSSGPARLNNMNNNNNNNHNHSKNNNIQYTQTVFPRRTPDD

In publication PMC4434323 one finds binding signal (PBM E-score (-0.5 to 0.5)) data, which are given here for 44 sequences.

Chain of scrt-1 (C55C2.1) (Caenorhabditis elegans) (chain, as listed by the source): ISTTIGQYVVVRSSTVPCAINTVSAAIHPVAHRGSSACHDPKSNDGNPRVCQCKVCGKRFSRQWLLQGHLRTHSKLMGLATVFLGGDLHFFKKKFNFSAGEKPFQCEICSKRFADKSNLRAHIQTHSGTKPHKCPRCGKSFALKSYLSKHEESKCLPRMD

Consider “TTACATAA (double strand) [8-mer TTACATAA]”, for which the binding signal (PBM E-score (-0.5 to 0.5)) in data set [1] amounted to 0.489.

As for “ACAACCAC (double strand) [8-mer ACAACCAC]”, the binding signal (PBM E-score (-0.5 to 0.5)) in [2] turned out to be 0.472. In turn, “TGGCGTAA (double strand) [8-mer TGGCGTAA]” had a binding signal (PBM E-score (-0.5 to 0.5)) in [3] of 0.452. “CACCTGTA (double strand) [8-mer CACCTGTA]” gave a binding signal (PBM E-score (-0.5 to 0.5)) in [4] of 0.457. Sequence “AAACCACT (double strand) [8-mer AAACCACT]” registered a binding signal (PBM E-score (-0.5 to 0.5)) in data set [2] of 0.453. “AAATGTTC (double strand) [8-mer AAATGTTC]”: the binding signal (PBM E-score (-0.5 to 0.5)) amounted to 0.487 in [5] and 0.469 in data set [6]. For “AAATATTA (double strand) [8-mer AAATATTA]”, the binding signal (PBM E-score (-0.5 to 0.5)) in data set [7] worked out at 0.459; in data set [8] it was 0.456; in data set [6] it was 0.481. As for “ATCGCCAC (double strand) [8-mer ATCGCCAC]”, in data set [9], the binding signal (PBM E-score (-0.5 to 0.5)) is 0.49. For “AAAATATT (double strand) [8-mer AAAATATT]”, the binding signal (PBM E-score (-0.5 to 0.5)) in [7] worked out at 0.469; in [8], 0.451; in [6], 0.485.

In the case of “AACCACTG (double strand) [8-mer AACCACTG]”, the binding signal (PBM E-score (-0.5 to 0.5)) in data set [2] was found to be 0.475. Consider “AAAATTTT (double strand) [8-mer AAAATTTT]”, for which the binding signal (PBM E-score (-0.5 to 0.5)) in data set [7] was determined as 0.469; in [6] it was 0.481. Regarding “ACGTAATA (double strand) [8-mer ACGTAATA]”, the binding signal (PBM E-score (-0.5 to 0.5)) in data set [1] came out at 0.472. Regarding “GTACAAAA (double strand) [8-mer GTACAAAA]”, the binding signal (PBM E-score (-0.5 to 0.5)) in data set [5] was found to be 0.46. As to “ATCTCCAG (double strand) [8-mer ATCTCCAG]”, the binding signal (PBM E-score (-0.5 to 0.5)) in data set [9] was 0.474. For “AGTGGTTG (double strand) [8-mer AGTGGTTG]”, the binding signal (PBM E-score (-0.5 to 0.5)) in data set [2] is 0.492.

Regarding “AACCACTA (double strand) [8-mer AACCACTA]”, the binding signal (PBM E-score (-0.5 to 0.5)) in data set [2] is 0.46. In data set [1], “TTATATAA (double strand) [8-mer TTATATAA]” came in with a binding signal (PBM E-score (-0.5 to 0.5)) of 0.451. For the sequence “AGTACAAA (double strand) [8-mer AGTACAAA]”, the values for the binding signal (PBM E-score (-0.5 to 0.5)) in [10] and in [5] were 0.451 and 0.456, respectively. In the case of “ATTGTCAC (double strand) [8-mer ATTGTCAC]”, the binding signal (PBM E-score (-0.5 to 0.5)) was 0.486 in [11] and 0.47 in data set [9]. As for “ACAGGTGG (double strand) [8-mer ACAGGTGG]”, in data set [4], the binding signal (PBM E-score (-0.5 to 0.5)) came out at 0.467.

Turning to “TTGCGCAA (double strand) [8-mer TTGCGCAA]”, the binding signal (PBM E-score (-0.5 to 0.5)) in data set [3] stood at 0.498; in [12] it was 0.493; in [13] it was 0.462.

Sequence “CACCTGTC (double strand) [8-mer CACCTGTC]” had a binding signal (PBM E-score (-0.5 to 0.5)) in [4] of 0.456. In data set [7], “AATTTTTA (double strand) [8-mer AATTTTTA]” gave a binding signal (PBM E-score (-0.5 to 0.5)) of 0.453. As to “AATGATCT (double strand) [8-mer AATGATCT]”, in data set [5], the binding signal (PBM E-score (-0.5 to 0.5)) is 0.45. In data set [2], “AACCACCT (double strand) [8-mer AACCACCT]” displayed a binding signal (PBM E-score (-0.5 to 0.5)) of 0.464. The sequence “TGGCGCAA (double strand) [8-mer TGGCGCAA]” showed a binding signal (PBM E-score (-0.5 to 0.5)) in [3] of 0.461. In [9], “ATCTCCAC (double strand) [8-mer ATCTCCAC]” gave a binding signal (PBM E-score (-0.5 to 0.5)) of 0.485. Still for that read-out and setting: with “ATCTTCAC (double strand) [8-mer ATCTTCAC]” the figure was 0.488.

In the case of “AAAATGTT (double strand) [8-mer AAAATGTT]”, the results for the binding signal (PBM E-score (-0.5 to 0.5)) in data set [5] and in [6] were 0.458 and 0.475, respectively. “ATGTTCTC (double strand) [8-mer ATGTTCTC]” yielded a binding signal (PBM E-score (-0.5 to 0.5)) in data set [5] of 0.465. The sequence “AGCAGGTG (double strand) [8-mer AGCAGGTG]” gave a binding signal (PBM E-score (-0.5 to 0.5)) in [4] of 0.457.

In data set [7], “AAATTATT (double strand) [8-mer AAATTATT]” had a binding signal (PBM E-score (-0.5 to 0.5)) of 0.454. The sequence “CAACCACC (double strand) [8-mer CAACCACC]” showed a binding signal (PBM E-score (-0.5 to 0.5)) in [2] of 0.483. The sequence “ATCACCAC (double strand) [8-mer ATCACCAC]” displayed a binding signal (PBM E-score (-0.5 to 0.5)) in data set [9] of 0.459. In turn, “ACAGGTGC (double strand) [8-mer ACAGGTGC]” registered a binding signal (PBM E-score (-0.5 to 0.5)) in data set [4] of 0.477. Turning to “AAAAATTT (double strand) [8-mer AAAAATTT]”, the binding signal (PBM E-score (-0.5 to 0.5)) in data set [7] was determined as 0.478; in data set [6] it was 0.481. “AACCACTT (double strand) [8-mer AACCACTT]”: in data set [2], the binding signal (PBM E-score (-0.5 to 0.5)) is 0.476. For “AATGTTCT (double strand) [8-mer AATGTTCT]”, the binding signal (PBM E-score (-0.5 to 0.5)) in data set [5] was found to be 0.482.

“AAAATTTC (double strand) [8-mer AAAATTTC]”: in data set [7], the binding signal (PBM E-score (-0.5 to 0.5)) stood at 0.47.

The sequence “ATCGCCAG (double strand) [8-mer ATCGCCAG]” showed a binding signal (PBM E-score (-0.5 to 0.5)) in data set [9] of 0.473. For the sequence “GTTGCGCA (double strand) [8-mer GTTGCGCA]”, the figures for the binding signal (PBM E-score (-0.5 to 0.5)) in [3] and in data set [14] were 0.452 and 0.493, respectively. “ATCGTCAC (double strand) [8-mer ATCGTCAC]” registered a binding signal (PBM E-score (-0.5 to 0.5)) in [9] of 0.487. As to “ACACCTGT (double strand) [8-mer ACACCTGT]”, the binding signal (PBM E-score (-0.5 to 0.5)) in data set [4] came out at 0.468. “ATTACGTA (double strand) [8-mer ATTACGTA]”: the values for the binding signal (PBM E-score (-0.5 to 0.5)) in [12] and in [1] were 0.485 and 0.459, respectively.
